Source: PMC5689134, “Detailed Analysis of Insulin Absorption Variability and the Tissue Response to Continuous Subcutaneous Insulin Infusion Catheter Implantation in Swine” (Diabetes Technology & Therapeutics, 2017)

Test system: subcutaneous tissue
Assay: Tissue histology surrounding CSII catheters, pathologist grading
Format: in vivo, swine
Conditions: for Tissue histopathology compared with catheters infused with saline or not infused: day 5 of CSII infusion, result in words
Method: The swine were euthanized after completion of the third PK study on day 5. A 50 μL bolus of methylene blue dye was then infused into the CCs and ICs to determine whether dye migrated onto the skin surface. The skin and subcutaneous tissue surrounding the 72 catheters were excised and fixed in 10% formalin for 3 days. The tissue was grossed and processed using a long dehydration protocol for fatty tissue.[21] Specimens were sectioned perpendicular or parallel to the skin surface depending on the location and angle of the cannula in the excised tissue specimen. Four-micrometer-thick tissue sections were stained with hematoxylin and eosin (nuclei are stained blue/purple, extracellular matrix [ECM] and cytoplasm are stained in pink), Masson's trichrome (collagen/connective tissue is stained blue, muscle fibers and erythrocytes are stained bright red, and cytoplasm is stained pink), and a reticulin stain (type III collagen is stained silver).
A surgical pathologist analyzed the stained tissue for no, mild, moderate, or severe (grades 0, 1, 2, or 3, respectively) hemorrhage, reticular fiber disruption, fibrin deposition, fat necrosis, and collagen deposition compared with unaffected tissue. This grading system was newly established by the lead pathologist of this study who predefined these criteria before analyzing all samples. The pathologist remained blinded throughout the study. The size of the debris field was measured (mm) using the Aperio ScanScope image capture device and ImageScope software (Leica Biosystems). Topography of tissue planes was considered regular if subcutaneous tissue was pushed down evenly in the direction of the cannula tip and irregular or intermediate otherwise. Irregular or regular reservoir geometry described the shape of the debris field surrounding the catheter tip.
Fisher's exact test was used to evaluate the differences in histology profiles of CCs and ICs. A chi-squared test was applied to analyze differences in methylene blue dye leakage.

[1] = swine s.c. tissue, day 5, insulin-infused CSII catheters (CC + IC), count (percent in brackets)
[2] = swine s.c. tissue, day 5, insulin-infused CSII catheters (CC + IC), count (percent in brackets), P < 0.05 between infusion types
[3] = swine, day 5, insulin-infused CC, count (percent of 11 catheters)
[4] = swine, day 5, insulin-infused IC, count (percent of 12 catheters)

## insulin lispro
[1]
  Collagen deposition at tip: catheters graded Mild: 16 (66.7)
  Collagen deposition at tip: catheters graded Moderate: 5 (20.8)
  Collagen deposition at tip: catheters graded None: 2 (8.3)
  Collagen deposition at tip: catheters graded Severe: 1 (4.2)
  Fat Necrosis: catheters graded Mild: 5 (20.8)
  Fat Necrosis: catheters graded Moderate: 12 (50.0)
  Fat Necrosis: catheters graded None: 1 (4.2)
  Fat Necrosis: catheters graded Severe: 6 (25.0)
  Hemorrhage at tip base: catheters graded Mild: 13 (54.2)
  Hemorrhage at tip base: catheters graded Moderate: 10 (41.7)
  Hemorrhage at tip base: catheters graded None: 1 (4.2)
  Hemorrhage at tip base: catheters graded Severe: 0
  Reticular Fiber Disruption: catheters graded Mild: 9 (37.5)
  Reticular Fiber Disruption: catheters graded Moderate: 6 (25.0)
  Reticular Fiber Disruption: catheters graded None: 1 (4.2)
  Reticular Fiber Disruption: catheters graded Severe: 8 (33.3)
[2]
  Fibrin Deposition in Reservoir: catheters graded Mild: 2 (8.3)
  Fibrin Deposition in Reservoir: catheters graded None: 1 (4.2)
  Fibrin deposition in reservoir: catheters graded Moderate: 11 (45.8)
  Fibrin deposition in reservoir: catheters graded Severe: 10 (41.7)
Swine s.c. tissue
  Tissue histopathology compared with catheters infused with saline or not infused: increased fibrin
Swine s.c. tissue, listed as lispro insulin
  Tissue histopathology compared with catheters infused with saline or not infused: greater amount of fibrin in the reservoir
[3]
  Collagen Deposition at Tip: catheters graded Mild: 9 (82%)
  Collagen Deposition at Tip: catheters graded Moderate: 2 (18%)
  Collagen Deposition at Tip: catheters graded None: 0
  Collagen Deposition at Tip: catheters graded Severe: 0
  Fat Necrosis: catheters graded Mild: 4 (36%)
  Fat Necrosis: catheters graded Moderate: 7 (64%)
  Fat Necrosis: catheters graded None: 0
  Fat Necrosis: catheters graded Severe: 0
  Fibrin Deposition in Reservoir: catheters graded Mild: 0
  Fibrin Deposition in Reservoir: catheters graded None: 0
  Fibrin deposition in reservoir: catheters graded Moderate: 3 (27%)
  Hemorrhage at Tip Base: catheters graded Mild: 7 (64%)
  Hemorrhage at Tip Base: catheters graded Moderate: 4 (36%)
  Hemorrhage at Tip Base: catheters graded None: 0
  Hemorrhage at Tip Base: catheters graded Severe: 0
  Reticular Fiber Disruption: catheters graded Mild: 9 (82%)
  Reticular Fiber Disruption: catheters graded Moderate: 2 (18%)
  Reticular Fiber Disruption: catheters graded None: 0
  Reticular Fiber Disruption: catheters graded Severe: 0
[4]
  Collagen Deposition at Tip: catheters graded Mild: 7 (58%)
  Collagen Deposition at Tip: catheters graded Moderate: 3 (25%)
  Collagen Deposition at Tip: catheters graded None: 1 (8%)
  Collagen Deposition at Tip: catheters graded Severe: 1 (8%)
  Fat Necrosis: catheters graded Mild: 1 (8%)
  Fat Necrosis: catheters graded Moderate: 5 (42%)
  Fat Necrosis: catheters graded None: 0
  Fat Necrosis: catheters graded Severe: 6 (50%)
  Fibrin Deposition in Reservoir: catheters graded Mild: 2 (17%)
  Fibrin Deposition in Reservoir: catheters graded None: 0
  Fibrin deposition in reservoir: catheters graded Severe: 2 (17%)
  Hemorrhage at Tip Base: catheters graded Mild: 6 (50%)
  Hemorrhage at Tip Base: catheters graded Moderate: 6 (50%)
  Hemorrhage at Tip Base: catheters graded None: 0
  Hemorrhage at Tip Base: catheters graded Severe: 0
  Reticular Fiber Disruption: catheters graded Mild: 0
  Reticular Fiber Disruption: catheters graded Moderate: 4 (33%)
  Reticular Fiber Disruption: catheters graded None: 0
  Reticular Fiber Disruption: catheters graded Severe: 8 (67%)
